Publication PMC3169408, “Structure of triosephosphate isomerase from Cryptosporidium parvum” (Acta Crystallographica Section F: Structural Biology and …, 2011)

Target: the molecule itself
Assay: crystal structure; crystals from 100 mM Bis-Tris propane pH 7.5, 200 mM sodium sulfate, 20% PEG 3350; space group P2(1); 1.55 Å; two molecules per asymmetric unit; interface analysed with PISA

B1: triosephosphate isomerase from Cryptosporidium parvum Iowa II (enzyme, UniProt Q5CSE7 1-250, looked up)
chain: MSRKYFVGGNFKCNGTKESLKTLIDSFKQVESSNSEVYVFPTSLHISLVKEFFGNDHPGVFKIGSQNISCTGNGAFTGEVSCEMLKDMDVDCSLVGHSERRQYYSETDQIVNNKVKKGLENGLKIVLCIGESLSERETGKTNDVIQKQLTEALKDVSDLSNLVIAYEPIWAIGTGVVATPGQAQEAHAFIREYVTRMYNPQVSSNLRIIYGGSVTPDNCNELIKCADIDGFLVGGASLKPTFAKIIESAQ
notes: triosephosphate isomerase, Cryptosporidium parvum Iowa II, UniProt Q5CSE7, residues 1-250 (Met1-Gln250), full length; The final model extends from Ser2 to Gln250 in both chains; also called TIM; CrpaA.01119.a.A1; source: E. coli Rosetta Oxford strain [BL21*(DE3)-R3-pRARE2], purified (IMAC, tag cleavage with 3C protease, SEC)
B1 was tested, and the “stoichiometry N” value was 2.
